B1: PLAGL1 (parent)
chain: LELGSTEVLLDHLKAHAEEKPPSG
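Also: lentivirally expressed fusions sorted by FACS into six bins by GFP to DsRed ratio, PSI derived from sequencing read proportions per bin multiplied by bin number.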

Variants of: B1
Test: protein stability index of a GFP-peptide fusion (GPS, HEK-293T) (PSI 1-6); higher = more stable
Settings: c terminus: a fixed tail appended
LELGSTEVLLDHLKRHAEEKPPSG showed a protein stability index of 3.89. In the case of LELGSTEVLLDHLKQHAEEKPPSG, the protein stability index is reported as 4.63. LELGSTEVLLDHLKTHAEEKPPSG showed a protein stability index of 5.14. In the case of LELGSTEVLLDHLKWHAEEKPPSG, the protein stability index is reported as 3.54. Work on LELGSTEVLLDHLKYHAEEKPPSG yielded a protein stability index of 4.04. With LELGSTEVLLDHLKPHAEEKPPSG the protein stability index was 5.41. In the case of LELGSTEVLLDHLKMHAEEKPPSG, the protein stability index is reported as 4.48. Variant LELGSTEVLLDHLKVHAEEKPPSG has a protein stability index of 4.72. With LELGSTEVLLDHLKNHAEEKPPSG the protein stability index was 4.73. Work on LELGSTEVLLDHLKSHAEEKPPSG yielded a protein stability index of 4.44. In the case of LELGSTEVLLDHLKAHAEEKPFSG, the protein stability index is reported as 3.35. For LELGSTEVLLDHLKAHAEEKPWSG, the protein stability index was 3.38. LELGSTEVLLDHLKAHAEEKPTSG showed a protein stability index of 4.88. Variant LELGSTEVLLDHLKAHAEEKPASG has a protein stability index of 4.49. LELGSTEVLLDHLKAHAEEKPGSG showed a protein stability index of 4.4. For LELGSTEVLLDHLKAHAEEKPDSG, the protein stability index was 4.88. With LELGSTEVLLDHLKAHAEEKPISG the protein stability index was 4.06. LELGSTEVLLDHLKAHAEEKPHSG gave a protein stability index of 4.03. With LELGSTEVLLDHLKAHAEEKPKSG the protein stability index was 4.25. LELGSTEVLLDHLKAHAEEKPYSG showed a protein stability index of 3.9. LELGSTEVLLDHLKAHAEEKPNSG showed a protein stability index of 4.95. With LELGSTEVLLDHLKAHAEEKPMSG the protein stability index was 3.85. Variant LELGSTEVLLDHLKAHAEEKPSSG has a protein stability index of 4.79. LELGSTEVLLDHLKAHAEEKPQSG gave a protein stability index of 4.85. Work on LELGSTEVLLDHLKAHAEEKPRSG yielded a protein stability index of 4.1. Work on LELGSTEVLLDHLKAHAEEKPESG yielded a protein stability index of 5.08. LELGSTEVLLDHLKAHAEEKPVSG showed a protein stability index of 3.81. With LELGSTEVLLDHLKAHAEEKPLSG the protein stability index was 3.9. In the case of LELGSTEVLLDHLKAHAEEKPCSG, the protein stability index is reported as 4.58. In the case of LELGSTEVLLDHLKADAEEKPPSG, the protein stability index is reported as 4.25. Work on LELGSTEVLLDHLKANAEEKPPSG yielded a protein stability index of 5.11. LELGSTEVLLDHLKAVAEEKPPSG gave a protein stability index of 4.05. LELGSTEVLLDHLKAFAEEKPPSG gave a protein stability index of 3.42. LELGSTEVLLDHLKARAEEKPPSG gave a protein stability index of 4.28. With LELGSTEVLLDHLKAYAEEKPPSG the protein stability index was 3.33. For LELGSTEVLLDHLKAMAEEKPPSG, the protein stability index was 3.29. In the case of LELGSTEVLLDHLKASAEEKPPSG, the protein stability index is reported as 4.58. LELGSTEVLLDHLKATAEEKPPSG gave a protein stability index of 4.29. Work on LELGSTEVLLDHLKAIAEEKPPSG yielded a protein stability index of 3.93. Variant LELGSTEVLLDHLKALAEEKPPSG has a protein stability index of 4.08. With LELGSTEVLLDHLKAPAEEKPPSG the protein stability index was 5.07. LELGSTEVLLDHLKACAEEKPPSG showed a protein stability index of 4.2. In the case of LELGSTEVLLDHLKAWAEEKPPSG, the protein stability index is reported as 3.02. In the case of LELGSTEVLLDHLKAKAEEKPPSG, the protein stability index is reported as 5.08. LELGSTEVLLDHLKAEAEEKPPSG gave a protein stability index of 4.6. For LELGSTEVLLDHLKAGAEEKPPSG, the protein stability index was 3.88. In the case of LELGSTEVLLDHLKAQAEEKPPSG, the protein stability index is reported as 4.53. LELGSTEVLLDHLKAAAEEKPPSG showed a protein stability index of 4.24. With LELGSTEVLLDHLKAHAEAKPPSG the protein stability index was 3.73. For LELGSTEVLLDHLKAHAEIKPPSG, the protein stability index was 3.14. Work on LELGSTEVLLDHLKAHAETKPPSG yielded a protein stability index of 3.55. LELGSTEVLLDHLKAHAEQKPPSG showed a protein stability index of 3.89. LELGSTEVLLDHLKAHAERKPPSG showed a protein stability index of 3.58. LELGSTEVLLDHLKAHAEDKPPSG showed a protein stability index of 4.48. LELGSTEVLLDHLKAHAEGKPPSG showed a protein stability index of 2.45. LELGSTEVLLDHLKAHAESKPPSG gave a protein stability index of 3.65. Work on LELGSTEVLLDHLKAHAEWKPPSG yielded a protein stability index of 3.23. In the case of LELGSTEVLLDHLKAHAEKKPPSG, the protein stability index is reported as 3.55. LELGSTEVLLDHLKAHAELKPPSG gave a protein stability index of 2.64. Variant LELGSTEVLLDHLKAHAEMKPPSG has a protein stability index of 3.41. LELGSTEVLLDHLKAHAENKPPSG gave a protein stability index of 4.03. In the case of LELGSTEVLLDHLKAHAEPKPPSG, the protein stability index is reported as 4.28. LELGSTEVLLDHLKAHAEYKPPSG showed a protein stability index of 3.32. For LELGSTEVLLDHLKAHAEVKPPSG, the protein stability index was 3.27. With LELGSTEVLLDHLKAHAECKPPSG the protein stability index was 3.12. LELGSTEVLLDHLKAHAEFKPPSG gave a protein stability index of 2.33. With LELGSTEVLLDHLKAHAEHKPPSG the protein stability index was 3.61. With LELGSTEVLLDHLKAHAEEVPPSG the protein stability index was 4.41. LELGSTEVLLDHLKAHAEEEPPSG showed a protein stability index of 5.18. In the case of LELGSTEVLLDHLKAHAEEWPPSG, the protein stability index is reported as 4.06. Work on LELGSTEVLLDHLKAHAEEPPPSG yielded a protein stability index of 4.88. Work on LELGSTEVLLDHLKAHAEERPPSG yielded a protein stability index of 4.26. In the case of LELGSTEVLLDHLKAHAEENPPSG, the protein stability index is reported as 4.58. LELGSTEVLLDHLKAHAEEMPPSG showed a protein stability index of 4.01. LELGSTEVLLDHLKAHAEEIPPSG showed a protein stability index of 3.71. LELGSTEVLLDHLKAHAEECPPSG gave a protein stability index of 4. LELGSTEVLLDHLKAHAEEFPPSG showed a protein stability index of 2.9. Work on LELGSTEVLLDHLKAHAEETPPSG yielded a protein stability index of 4.86. For LELGSTEVLLDHLKAHAEEHPPSG, the protein stability index was 3.59. LELGSTEVLLDHLKAHAEESPPSG gave a protein stability index of 4.21. With LELGSTEVLLDHLKAHAEEAPPSG the protein stability index was 4.56. LELGSTEVLLDHLKAHAEELPPSG gave a protein stability index of 3.9. For LELGSTEVLLDHLKAHAEEQPPSG, the protein stability index was 3.56. For LELGSTEVLLDHLKAHAEEYPPSG, the protein stability index was 3.6. With LELGSTEVLLDHLKAHAEEDPPSG the protein stability index was 4.64. In the case of LELGSTEVLLDHLKAHAEEGPPSG, the protein stability index is reported as 4.22. LELGSTEVLLDHLKAHAEEKIPSG showed a protein stability index of 4.22. For LELGSTEVLLDHLKAHAEEKCPSG, the protein stability index was 3.55. Work on LELGSTEVLLDHLKAHAEEKHPSG yielded a protein stability index of 4.57. Work on LELGSTEVLLDHLKAHAEEKTPSG yielded a protein stability index of 4.56. Work on LELGSTEVLLDHLKAHAEEKGPSG yielded a protein stability index of 4.45. In the case of LELGSTEVLLDHLKAHAEEKVPSG, the protein stability index is reported as 4.41. With LELGSTEVLLDHLKAHAEEKDPSG the protein stability index was 4.92. Variant LELGSTEVLLDHLKAHAEEKFPSG has a protein stability index of 3.72.

Reference: the supplement of paper PMC10567573
